# Measured values published in the DeepSol protein solubility set.
# Experiment: soluble on expression in E. coli; label from the status in PepcDB or PDB records
row,Sequence,soluble on expression in E. coli
1,MQSTATYGSTISSGTSRTLKITEIGGSNLTSGMSPFGGHAASAIRESRTREKKEMSELNDRLASYIEKVRFLEAQNRKMEKDLNLLRGKWGHDSTSVKVMYETELRSAKDLIADSDKERAQLEDQIKKLVEELNNYRNKLHEAERGADVTRKELDNVLGRLGALEAEIELLKRRISLMEESIGHLKRENHRMIDSLHHARIFQAVEQETLNRIDYQNQVQTLLEECDFIRRIHDSEIHDLLAMASRDTTVENREYFKNELSSAIREIRSEYDHVSNTTRTDIESWYKLKVQEIHTQNSRNCLEQNYAREEVKRLRTTLGDMRGKMADLEGRNLLLEKQIEDLNYQMEEDMRSYEQSLNDKDTSINKLRDESKILMVELQMLIDTKQTLDAEIVIYRKMLDGEENRAGLRQLVEQVVKTTSIHQTKEIESLRVLKGETTSHSSYSRSAKGNIAIQEAEPSGKYIVLENISRRDENIGDWKLRRKIAGKREIVFTFPREFTLRAQKSVKIFARGQGVHSPPDSLVYDLEDSFGTGNDVVTTLYNKEGEDRASHSQRASHT,not soluble
2,MATIPSVVREITLVGEQIFDHTQVVRAEIDRFVERFERNERHREFDGILRASHALVESSETPVEGLFDMGKMEHMTQCVDDITKKLQTLVEPKYQKEHDVYLEKVKEDQKKYVDVCREQAMNKMRSMTAHR,not soluble
3,SENLTMNIDSTKTIQGTILPVLDFKTEKENVFTFKNTANLNLLIKHGQVINLINKLEFSTYGNKVTVSGGYVHTEYRYLLHHVFEVYPYVESQWAESRGMKYKVSTGLQSRYR,not soluble
4,MGSDKIHHHHHHMDLFSAMRIFIRVVERGSMSAAARDLGIGQPAVSERIEKLEAHLGTRLLRRNTRNMSLTQSGNVFYERSKTAVQAAEHALSVNEENQGLQGKIRIAAPYSAGESLLMPALLQLQNEHPELQVDVIFNDRVINPVTEGVDLSLRLGDVSEGFFVARPLGTVRRVLLASPALLAKMGHPDTPDALTDYPFAAVSGVFASNRIQLVASEDQLINVPVNIQFQSTHWRSVLSWLLAGHAIGVLQSPVCRKEIADGALIPLLSHYPIPPFSAWLLHPPAGMMSYETRICASLLEGYIRDLLLEPAG,not soluble
5,MIKGGGGKSSGYSADLMVCFPSRAHLSLPSKSISSPSSSFNRRQNAPHHRRSISKLSSSGGGVRQNRGGGREVVEEPTSPKVTCAGQIKVRSSKRDGGGKNWQSLMAEIEKIHRSKSESKFFGIKRDVMGFLTCLRDFDFRCFGAFPPVDIISDDEEEDEEEEEEDEEEDEDESSGTVFSKWLMVLHEKQNNEECVDGKENVFSDVETAVPPPNALLLMRCRSAPVKNWSEEKKEETEEGDNRVKQSGEEEEEEKDRVGNKKDLRSLMEEEKKMNLVVMNYDTNYYKLSNDIAKETWVVGGIQDPLFRSRSWKK,not soluble
6,METLSNIQCFVRSAEAGSFAEAARRLGLTPAGVGKNVARLESNLGVRLFQRSTRRLTLTEAGERFLQEVGGSLEGIQTALANVSSVGNQPSGTLKVSMGLAFGRDYILPLLGEFLERYPDIVPDWHFDNRQVDLIGEGFDAAIGGGFELPPGVVARNLTPGHLILLASPTYLRDKPPIRHPGDLGGFDGIRIRSPQTGRVRSWPLRRRNGEEAPIELRERMTMSDPEATCEVAAMGLGITLVCMQHAYAYLESGALVRVLPDWYVDAGNTSLYYAANKLLPAKTRVFVDFVVDYFRRQDLARRFSAFPTG,not soluble
7,SKREMPSMYPQAKGILSALKEKGIEMAIASRSPTSDIANTFLDKLNIKPMFVAKEIYSSWSHKTEHFQKIHTRTGVPFTAMLFFDDEDRNIKSVSKMGVTSILVGDGVTLGAFRQGLTEFTQN,not soluble
8,MGSDKIHHHHHHMPDLFVTNFNRNFTGVSATAANVIRQQVATHDLALVGHALPGCPAPISARAARALSRTPPPGKPFAIWHVRRNPEMQTAIWARDVLRLPIRIVFTSAAIRRHSAFPRWLISRMDAVVATSDAAASFVPHVRAVVPHGVDTDRFTPAPDRPAAWAAQGYGGSFGIATIGRVRPEKGTDLFVEAMLRLLPDMPGAVALVVGRATKEHQKFALTLKDKVQRAGMIDRIRFIDEVPPDRLPDLMRALSLVVQLPRYEGYGMVPLEAMASGVPFVGSDTGFFREFSAQGRAGRVVPLENAGLGAEAARALLADEDVHGAAALAAREIAVESFSAAREAAGIEAVYQQLWSQAAPGA,not soluble
9,DTHFPICIFCCGCCHRSKCGMCCKT,soluble
10,MLPGTFFEVLKNEGVVAIATQGEDGPHLVNTWNSYLKVLDGNRIVVPVGGMHKTEANVARDERVLMTLGSRKVAGRNGPGTGFLIRGSAAFRTDGPEFEAIARFKWARAALVITVVSAEQTK,soluble
11,MHNNENVSGISAYLLGLIIGDGGLYKLKYKGNRSEYRVVITQKSENLIKQHIAPLMQFLIDELNVKSKIQIVKGDTRYELRVSSKKLYYYFANMLERIRLFNMREQIAFIKGLYVAEGDKTLKRLRIWNKNKALLEIVSRWLNNLGVRNTIHLDDHRHGVYVLNISLRDRIKFVHTILSSHLNPLPPE,soluble
12,GAMMPVPNPTMPVKGAGTTLWVYKGSGDPYANPLSDVDWSRLAKVKDLTPGELTAESYDDSYLDDEDADWTATGQGQKSAGDTSFTLAWMPGEQGQQALLAWFNEGDTRAYKIRFPNGTVDVFRGWVSSIGKAVTAKEVITRTVKVTNVGRPSMAE,soluble
13,MKGLCSSDTRQYLPGHQLWEAPVQIRRYSAVIHHATKCQWGVIPSRTINVSLHQTRRMRVAAVGIGGAGGRIVERLWQDNERRETTYLGAACAVDTDTEALDELDALPADRRYAFGLSETNGTGTNGDRTSGTAAIEDERLEVRRAIDELVTSDIDAVVLVAGLAGGTGSGATAHIADALREVYSIPVYCLSVLPAGRDDDAAANTMQALRALESTVDGQILFDNEAWLGSGQTVESASETLNETIVARLGALFAAGEATAPDAVGQSVVDASEIINTLSDAGFTTLGYASQDLQTGAGSGDGTVIDQLKNRFLGDNADDVDEIEAYNAVETTLRRAVRGKLTAQCELDSADRALAVFAGPPAWLIRDAVTDGRRWLTEELQSPEVRSGLEHHHHHH,not soluble
14,MAHHHHHHMTQLHSVASLDYGDGRTCVCRICECGKHQCPGLRVPFVGETTYRDEYVGKSIERERPRKARQTVFPSKAEPGHFKTTKQEAADLLKGKDLRPAESYKPREAAAAPLPFEGTTTNRADFPGWMPDYNRTKRKEDPLPRLPGTYVTTKGAMEEPVRDLAEQGRLPKPPKSFKADDTLQNSLPFDGITNYTAEYQPKEVPMTRSAARDVQPVALPENRDFQTTVSAAYQVPPMHMRHDCPAAFVPMRPASRDGHIKLSVYNIPSGDTMY,not soluble
15,MDERRTAEERRERMLPETMPVCPVRGSVIYPTMVMPIDAGRPISIRAIDEALARDRVLLIVSQRDKEVETPRPSDLFEVGTACNILKMRKNPDGSVQVLVQAFARVRVREWLDLGDHLEARGEVLADEPGEPILVKALVREVKDKFQALLKEGKYLAPEVAQFILNLEDPSQLADYVAFHMDFRLEDKQKVLETANVAERLRAVLVLLEAELALIETQRRIQQQVKEEIDRNQREYFLREQMKAIQRELHGEEGEQEVEEFRRKLEALDLPPVVRQEAERELNRFARMHPDSAEASVIRTYLDWIVNLPWNTRTEDNLDLERAKEILERDHYGLEKVKDRVLEYLAVRKLKAERAKRGEIPPDEVNKGPILLFVGPPGVGKTSIAKSIAEALGRKYVRVSLGGVRDESDIRGHRRTYIGAMPGRIIQGLRQAGTKNPVFLLDEVDKLGISYQGDPAAALLEVLDPAQNKEFVDHYLGVPFDLSEVMFICTANFPQNIPAPLYDRMEPIEFTSYTEQEKLEIAKRYLLPRQLKENGLEPEQVVVTEAALTRLITHYTREAGVRQLEREIGALLRKAARRILEEGKKRVRITEKDLEAYLGPPRFLPETEAREPQVGVATGMYYTPVGGDIMFVEVSVMPGKGNLILTGQLGDVMKESARAALSYAKKNALRFGIPLEKFDKSDIHIHVPAGAIPKEGPSAGVALVSALVSALTEVPVRHDIAMTGEITLTGRVLPIGGVKEKVLGARRAGIREVILPKLNEPDLSDIPKPLRQNMTFHFVEHLDQVLDLALVGGLKALEERGRRPRSARKKKELVAHA,soluble
16,MWWREKLFDGLRALELTKKTLKNKKERESMNQEELDKKLKKQEILVKDEKVWSYTYEDHISSIVKEAEKKGSFDHLPGKGKPLNLDKDLSYNPEKQLYRTLKNNHVLPRWIELSKEIDDLKEKLKENTNTAETADLIRTINKKVLEHNLLCPPSAQKTRVKTDFLEHHHHHH,soluble
17,MVAEVSPKLAASPMKKPFGFRGKMGKWCCCCFPCCRGSGKNNMGAWRDHDDSAFTEPRYHVRREDLGKLHRAAWWGEVPRADLIVMLRGPGINKRDKKKRTALHLACANGNSEVVSLLLDRQCQLHVFDSKKRTALIKAVQCQEDECALMLLQHGTDPNLPDMYGNTALHYAVYNEDKLMAKTLLLYGADIESKNKGGLTPLLLAVHGQKQRMVKFLIKKKANLNALDRFGRTALILAVRCGSASIVSLLLQQNIDVFSQDVFGQTAEDYAVSSHHSIICQLLSDYKENQMPNNSSGNSNPEQDLKLTSEEEPQRLKGSENSQHEKVTQEPDINKDCDREVEEEMQKHGSNNVGLSENLTDGAAAGNGDGGLVPQRKSRKHENQQFPNTEIEEYHRPEKKSNEKNKVKSQIHSVDNLDDITWPSEIASEDYDLLFSNYETFTLLIEQLKMDFNDSASLSKIQDAVISEEHLLELKNSHYEQLTVEVEQMENMVHVLQK,not soluble
18,MKTSDIHDVAIVGAGPAGLSAAYELIRTGFTPLVLERTPAVGDVWRNHYDGLRLNSGRFFSALPGSKFPLSAGGWPSRDEVVSLLETFPARGGFTVQTGIEVEKVSHDRERDIWLITSNDNRQFESRAVVIAAGANRIPIIPEWEGKNTFTGTIIHSSQFKSAQDYAGKHVLVVGSGNSAAEIASRLAKYADSVTMSVRTPPQILPKSIYGIPLIGIGVWTRYLPRALVDGLLNFLRRTMIGDLSVYGLPSPTISMSKQYAINNVVPILYGPFIDDVRSGRIKIVGPVQKISGGTVEVLSTVESALNGDQATTTLQPDIIVAGTGFRTGFPELIQVPGITDEKGRSKISGDQEFKGAPRLYFIGQINPLSGQLREIRLEAGRIARKLDKQLRAKLEHHHHHH,soluble
19,MGSDKIHHHHHHMAQSSIEWTEMTWNPTTGCTKISAGCKFCYAEIMSKRLKAMGIDKYKDGFKVNIYPDALSIPYTWKSSKVVFVNSMSDLFHEDIPLDYIKKVFQVMNENPQHVFQVLTKRAERLFEVYKELKWTHNIWMGVSVENDKVKNRIDLLRKTSAKVKFLSLEPLIGPLPKLNLKKIDWVIVGGESGHRPRPMDSDWVLDIQEQCLKSDVAFFFKQWGGRNKKANGRLLNGRTYDEMPEIMEIEKVK,not soluble
20,MGSDKIHHHHHHMGNFLYGIDFGTSNSVLSIFDEDKNEIIETLSVPSILYFPDAYDPALPLQYYVGEDAIRYYISDGMKGRFMKSIKRVLPRTNFVETRIHTKSFNAAGLITLILKELKTKADAIIGMDCKKAIIGRPVYFDDDNTVNDAVAQKRLLQAAQQAGLSDIRFQYEPIGAAFAYERTISKKEHVLVADLGGGTTDFTFIELDPHKNNRKDRRSDIIATGGIYIGGDSFDSAFMWDKGTPYFGRGVTYESMPGKMVDVPPSFFSNICSWEKMNFFNGVKVQNDLRQYYNYSKQNDKLKNLITLTENNLGYSIFQSIEKTKVDLSIQSSSSFSYHKADIHIDEPIDLTAYNRIIQRDVTKINNYLESFLSKHAIVPESIDSLFLTGGTSMVQAIQALFKEKFPHIAITSGDNFISVSKGLAYSGYLFD,not soluble
